Measured values taken from the DeepSol protein solubility set.

Assay: soluble on expression in E. coli; label from the status in PepcDB or PDB records

| Sequence | soluble on expression in E. coli |
| --- | --- |
| MSLRKNLEEEQRLIDAKKLSLVIDLDKTLIDTTEVRNRAEVDAIKKLDPAATEDDFFEFNMNQNLLIRYRPHVRQFLASIAPYFDMQIYTLASPAYAHAILSKIDPEDKLFKNRIFSRTAEDFAMIKEAMRNQTDIVNKKNIKKIFPYSDKLVLVLDDSPEVWFCDNNKLFKGLVQIKRYSYFTRQGPNSPPTVNPDYVNDDILIQMRSVLIDVHDMFYKNYDPEESHVIMTLHQRKAQVFEGKTFYFSGLSEDDTMTFTRLAEEFGALVVDSFTPYTTHIIVGEGGTDDQIQKAMEYRGVYIIYLKWLFECFIQYARIEESLYSIQGIPCPTEGHHHHHH | soluble |
| SGFNHVKPTEYKPRLLHISGDKNAKVAEVPLATSSLNSGDCFLLDAGLTIYQFNGSKSSPQEKNKAAEVARAIDAERKGLPKVEVFCETDSDIPAEFWKLLGGKGAIAAKHETA | soluble |
| GPGSMTLYSIYIFNRYGDNIFYKEWNRTTAPQEGEAGLVAGFIYTLQHFSSQLSSSGEGGFYAVRTPLYKLHYNETMTGYRVALLSDKDLKTDVVQNILRKMFSDVFQRYVTKDPNYSHTQGRVITSTAFGEALDQFFHSQKIL | not soluble |
| WTCNKFRCGEKRLTRSLCACSDDCKDQGDCCINYSSVCQGEKS | soluble |
| GMEEINKYIQNSSETGGEIYNLIEELFPICRSITGNGVRKTMDIIRKHIPLEIHEVKSGTKVFDWTVPKEWNIKDAYVRNSKGEKVIDFKENNLHVMSYSVPVHKTMTLDELKPYLHTIPGNKDRIPYLTSYYKENWGFSLTQNKFDELCDDDYEVVIDSSLEDGSLTYGEYYIRGELEEEILLTTYTCHPSMCNDNLSGVALITFIAKALSKLKTKYSYRFLFAPETIGSITWLSRNEDKLKNIKMGLVATCVGDAGIKNYKRTKFGDAEIDKIVEKVLMHCGSEYYVADFFPWGSDERQFSSPGINLSVGSLMRSCYGFDGYHTSADNLCYMNKDGLADSYKTYLEVIYTIENNRTYLNLNPKCEPQLGKRGIYRMIGGGSDYPFDEFAMFWVLNMSDGKNSLLDIAYKSGMEFRRIKYAADALYRVELLKLV | soluble |
| MGSDKIHHHHHHMNIYDQLQAVEDRYEELGELLSDPDVVSDTKRFMELSREEANSRETVAVYREYKQVVQNIADAQEMIKDASGDPELEEMAKEELKNSKVAKEEYEEKLRFLLLPKDPNDDKNIILEIRGAAGGDEAALFAGDLLNMYQKYAENQGWKFEVMEASANGVGGLKEVVAMVSGQSVYSKLKYESGAHRVQRVPVTESQGRVHTSTATVLVMPEVEEVEYEIDPKDLRVDIYHASGAGGQNVNKVATAVRIIHLPTNIKVEMQEERTQQKNRDKAMKIIRARVADHFAQIAQDEQDAERKSTVGTGDRSERIRTYNFPQNRVTDHRIGLTLQKLDSILSGKLDEVIDALILYDQTQKLEELNK | soluble |
| MGSDKIHHHHHHLSFIIRKALLTDVAAIVQLERAHVDDELLGSNSQLHAHSFTKSEVSQLINQHWFIVAEEQGVIIGYVMAAKWSFFSAQPLYRHIIQKLKFADLQGQALSTTNTCQYGPVWIQESKRGQGVFSALVTELKKQVADTFPFMVTYVAADNARSLAAHQQKAAMTEIDQFSFEQRDYCLLATTNIT | not soluble |
| GPGSMPERMTAALAARLVASPLKYVLLDIDGVIWCGGHVIDRVPETLQYLRGQGKQIRFLSNNASFSREQLMQSLKAKGIEGVTVEECYNSAYTAALRLRQMLGKADVPGEEPLVHGNVFVIGEQGLHDELQQVLAPGFITYGVELHDAVRAGGYDTDALGSAWRVPCLPPPQKRLVVCNGKACRMVQAGTNSAEKISLSDLNAAAVVVGLDKHFNIVKLAYGSLVLQGPPKDLREESYTPPLFVATNEDPQLPVGRDGTMIPGAGSMVSALCTAVGKRPDAVCGKPHKDMANILFAAEGVTNPREECIMIGDRLTTDVAFGNAAGCQSMLVLSGAEGLADVEEAEKQGRTALVPKYVAESLACFLPL | soluble |
| VTVTLCSPTEDDWPGMFLLAAASFTDFIGPESATAWRTLVPTDGAVVVRDGAGPGSEVVGMALYMDLRLTVPGEVVLPTAGLSFVAVAPTHRRRGLLRAMCAELHRRIADSGYPVAALHASEGGIYGRFGYGPATTLHELTVDRRFARFHADAPGGGLGGSSVRLVRPTEHRGEFEAIYERWRQQVPGGLLRPQVLWDELLAECKAAPGGDRESFALLHPDGYALYRVDRTDLKLARVSELRAVTADAHCALWRALIGLDSMERISIITHPQDPLPHLLTDTRLARTTWRQDGLWLRIMNVPAALEARGYAHEVGEFSTVLEVSDGGRFALKIGDGRARCTPTDAAAEIEMDRDVLGSLYLGAHRASTLAAANRLRTKDSQLLRRLDAAFASDVPVQTAFEF | not soluble |
| MSLSHQQKVYIPKEARTNQYITAEIKVTDELLNQYPDYHSCYQTLSRIIFNLAEQHDLRNVHVITNDKLPVVRYHTEAYCFQTAEQILFFYNPAYHEAQNLFTADNYRARKLRIVFLATGDEIRSNSANFHTRVQEFLNELMPKLPIKDLKVKIRDHQHLSYDLFAKSKGNKETYGYKLRAIAPRYKARKCELPENVSSLTYVTVSLPLSRKLKQGLLPESATDFSPLYQHLEDNFLKAAANKQLTRLAMIANGLTPLVRNSKFEKLDSKAEVQMIGFDPNATEQQVIRRWDADNLVEAAHFTIVAGAKDCDDAGYGRFMNNVEAALKSFAAEIGLDPEREDLVTRFHQHISYQL | soluble |
| MAHHHHHHMLRRVPLRLARRKHGQTAWSPNNTSSGAAPTNGITAQEALQIAYRPMPPANTVEYEEDFGPNMMIHREFVSSRHRTRMASDISALAYSDVELARARQQLAGVMNRERRGALVGSGGEAGDRVLFNSDVDETTREVKSARFLFNEQRMRFCDRFQTFFRERIERWAAGDAGAGEDDHPYFSLMEACAVLHGCDTVDAREVYYRRFLGLDLDTLEAEEAALRARAADAAEVGARLTRGEAGAGGGALVAAAAGGAGGAGSATDVVQDIIDALPPLFPQPAAAEVGEASEAVADAPPARARAAGAGELPPATAAAPAHLAEDAAPLYKAYLAHARGESPVGSYDVTTLGAHAAHAERRRWRSLMDKIAAEDYHELTAAELEDAHVLNGQLHTVKFFDLKVGDTVREIVQLLERETGSSASGDRDVPVEMSPTHPERRV | not soluble |
| MSLIYLHGFDSNSPGNHEKVLQLQFIDPDVRLVSYSTRHPKHDMQHLLKEVDKMLQLNVDERPLICGVGLGGYWAERIGFLCDIRQVVFNPNLFPYENMEGKIDRPEEYADIATKCVTNFREKNRDRCLVILSRHDEALDSQRSAQALHPFYEIVWDEEQTHKFKNISPYLQRIKAFKTLGEGHHHHHH | not soluble |
| RYIEKALKRPGNILIGTLPVGLDFPTRIVAEIVDAPSLTIEEIMRKAKYYLREGADIIDIGMESGKTNVEFLESVLPEIKEKINAPLSLDTLNPKEIEAGEKEVDLILSVDFGTVEEILPSKPVVLIPTNMKEGKFIEDPIGRAKALEKLKEKALNLGYKGLILDPILEHYPNFSRSLVAFYLYRMRNPQDILLAGVGNITEMMDADSVGLNALLASIAGELKISLLLTTEVSPKATGSVRELKRGIDMVLLGGVKDVGINLLILKEKRRKEQKIEFAKTIIRAKKKPVKLEEVYFKIYVVGTELAVTAYKGTNPVMTIIGKEPNEIIDTILEHFSISPRHAFYLGRELEKAYTGLKIRRSYIQEEELFGDFYFEK | not soluble |
| MGSDKIHHHHHHMHLFKRAEMLNVIDTLATNYLKGKVRAVRLSVIALLSGGHILLEDIPGLGKTTLALALARALGLSFGRVQCTSDLLPSDITGLSILNRDENRFTFMPGPIFNNVVLMDEINRAMPKTQSALLEAMEERRVTVEGTTHPLPEPFLVIATQNPVEQVGTYPLPESQLDRFMVRSGIGYPPEAIEKAIIKGGSIRDGIRHLEPLVTVNDIIEAQRTVRESIYLSDKVVDYIHAIVAATRSHRAVTSGVSTRGAISMAETAKAHAYLEGRDYVIPEDVKAIAAPVGAHRLILGFDNENLDKGELLHAILATIPVPLA | not soluble |
| IVGGQECKDGECPWQALLINEENEGFCGGTILSEFYILTAAHCLYQAKRFKVRVGDRNTEQEEGGEAVHEVEVVIKHNRFTKETYDFDIAVLRLKTPITFRMNVAPACLPERDWAESTLMTQKTGIVSGFGRTHEKGRQSTRLKMLEVPYVDRNSCKLSSSFIITQNMFCAGYDTKQEDACQGDSGGPHVTRFKDTYFVTGIVSWGEGCARKGKYGIYTKVTAFLKWIDRSMKTRGLPKAKSHAPEVITSSPLK | soluble |
| MAEFRIAQDVVARENDRRASALKEDYEALGANLARRGVDIEAVTAKVEKFFVAVPSWGVGTGGTRFARFPGTGEPRGIFDKLDDCAVIQQLTRATPNVSLHIPWDKADPKELKARGDALGLGFDAMNSNTFSDAPGQAHSYKYGSLSHTNAATRAQAVEHNLECIEIGKAIGSKALTVWIGDGSNFPGQSNFTRAFERYLSAMAEIYKGLPDDWKLFSEHKMYEPAFYSTVVQDWGTNYLIAQTLGPKAQCLVDLGHHAPNTNIEMIVARLIQFGKLGGFHFNDSKYGDDDLDAGAIEPYRLFLVFNELVDAEARGVKGFHPAHMIDQKHNVTDPIESLINSANEIRRAYAQALLVDRAALSGYQEDNDALMATETLKRAYRTDVEPILAEARRRTGGAVDPVATYRASGYRARVAAERPASVAGGGGIIGSHHHHHH | soluble |
| QVQLQQSGSELMKPGASVQISCKATGYTFSDYWIEWVKQRPGHGLEWIGDILCGTGRTRYNEKLKAMATFTADTSSNTAFMQLSSLTSEDSAVYYCARSASYGDYADYWGHGTTLTVSSAKTTPPSVYPLAPGCGDTTGSSVTLGCLVKGYFPESVTVTWNSGSLSSSVHTFPALLQSGLYTMSSSVTVPSSTWPSQTVTCSVAHPASSTTVDKKLEPS | soluble |
| MSDRATTTASLTFESLYGTHHGWLKSWLTRKLQSAFDADDIAQDTFLRVMVSETLSTIRDPRSFLCTIAKRVMVDLFRRNALEKAYLEMLALMPEGGAPSPEERESQLETLQLLDSMLDGLNGKTREAFLLSQLDGLTYSEIAHKLGVSISSVKKYVAKAVEHCLLFRLEYGL | soluble |
| MSLSVAVSPLAPKSYPDMPALRGVRMATAAAGIKYKNRTDVLLMVFDKPASVAGVFTKSKCPSAPVDFCRANLGSGAARAVVVNSGNANAFTGVKGKAATELTAKSAAAAVGCSEGEIFLASTGVIGEPLDASKFAGVLGDMNVRAEADFWQEAAKAIMTTDTYPKVSTRTAEIGGVIVTINGISKGAGMIAPDMATMLSFVVTDADIEPAALQSLLSAGVGPTFNSVTVDSDTSTSDTLMLFATGAAAEDGQVKVTSADDERLSSFRAALNDLLKDLALQVVRDGEGARKMVEVTVTGAENDAAAKKIALSIANSPLVKTAVAGEDANWGRVVMAVGKSGEMADRDRLAIWFGGVRVAVNGERDPDYSEAETTAVMRLEDITVKVDIGLGQGTATVWTCDLTKEYVAINGDYRSEGHHHHHH | not soluble |
| MKVTNLFKDKVDAISAHQSEFMNWMSPTLRDYWSDFLGKAQNSFLFSNVRDHNQPAVNEEVAPQPAPIVLQPEAQKLYDELSGKIGEVIHTGDWVHVSQERINQFGAVTEDMQWIHTDPERASVESPFKTTIAHGFLTLALLPKLTDSVDADKPLFPTAKLVVNLGLNQVRFPYPVKAGNNVRAVSTLTKVTPIKKGLEIEREIKVEIEGVRRPGAVVVSVIQLHFLEHHHHHH | soluble |
| SLSYTISRPINQLMLAMQKAESGDLTSRYEGEEQDEVGRLGRSFNTMIEQIGKLISLTERQERKKREAELHSLQANIKPHFLYNTLDTIQWMARKKNASDVADLVGALSKLFRIGLSKGGTIIPLVDEIEHIKNYLQIQSVRYKNKLNYSLVMPSNMERLSILKIVLQPIVENAIYHGIKERRGPGLITIEAERENDMLIIRIRDNGKGIKPETLQQLRTNVNLFLEKGDKEGGQRLTKGYGLINVHARLRLTFGEPYGVKIDSVFNEGTVVTIFHPILEGGVETKRA | soluble |
